Each block holds one binder with its values, some of them ahead of it.
Key:
CD96-His = biological target: T1, CD96-His (human, UniProt P40200-2 22-503, limits assumed); test: BLI (Fortebio), CD96-His antigen immobilised
T1 construct: not shown: His tag
T1 sequence (looked up): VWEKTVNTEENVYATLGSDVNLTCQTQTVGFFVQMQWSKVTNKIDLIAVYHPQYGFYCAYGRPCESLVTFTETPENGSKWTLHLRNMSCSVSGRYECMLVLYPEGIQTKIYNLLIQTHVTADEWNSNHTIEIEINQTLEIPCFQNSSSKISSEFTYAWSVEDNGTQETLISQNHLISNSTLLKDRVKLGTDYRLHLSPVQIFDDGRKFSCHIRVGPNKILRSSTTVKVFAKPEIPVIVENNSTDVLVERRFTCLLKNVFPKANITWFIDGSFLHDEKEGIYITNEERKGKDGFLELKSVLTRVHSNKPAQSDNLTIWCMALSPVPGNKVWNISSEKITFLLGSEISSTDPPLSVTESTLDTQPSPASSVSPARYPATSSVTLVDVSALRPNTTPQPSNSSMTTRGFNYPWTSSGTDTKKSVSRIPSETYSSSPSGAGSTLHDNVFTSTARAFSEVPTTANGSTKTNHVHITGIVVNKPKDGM

[1] = biological target: T2, CD96 (on 293T-CD96 cells and on T cells) (human) (UniProt P40200); test: flow cytometry on 293T-CD96 cells, 1.25 μg antibody, FITC anti-IgG detection
T2 sequence (looked up): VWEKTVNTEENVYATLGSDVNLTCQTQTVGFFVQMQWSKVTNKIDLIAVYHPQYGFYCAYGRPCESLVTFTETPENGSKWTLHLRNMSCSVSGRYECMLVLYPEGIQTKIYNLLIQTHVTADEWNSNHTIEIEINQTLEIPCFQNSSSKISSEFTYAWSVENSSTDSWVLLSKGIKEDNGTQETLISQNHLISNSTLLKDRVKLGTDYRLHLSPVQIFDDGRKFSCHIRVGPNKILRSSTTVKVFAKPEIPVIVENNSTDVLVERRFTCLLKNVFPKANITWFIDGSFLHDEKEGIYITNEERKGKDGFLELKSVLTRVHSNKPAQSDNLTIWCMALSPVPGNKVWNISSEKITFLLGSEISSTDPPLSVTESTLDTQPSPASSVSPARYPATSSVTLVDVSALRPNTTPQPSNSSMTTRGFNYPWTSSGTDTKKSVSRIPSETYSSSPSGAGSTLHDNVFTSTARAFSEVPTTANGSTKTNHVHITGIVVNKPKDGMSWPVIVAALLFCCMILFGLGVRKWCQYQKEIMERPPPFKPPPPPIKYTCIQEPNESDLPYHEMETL

[2] = biological target: T2, CD96 (on 293T-CD96 cells and on T cells) (human); test: flow cytometry on T cells at day 11 (CD96 expression 96.05%), FITC anti-IgG detection
[3] = biological target: T3, PD1 (on CHO-PD1 cells and on T cells) (human, UniProt Q15116 25-288); test: flow cytometry on CHO-PD1 cells
T3 construct: whole, on cells; also called PD1抗原分子
T3 sequence (Q15116 25-288): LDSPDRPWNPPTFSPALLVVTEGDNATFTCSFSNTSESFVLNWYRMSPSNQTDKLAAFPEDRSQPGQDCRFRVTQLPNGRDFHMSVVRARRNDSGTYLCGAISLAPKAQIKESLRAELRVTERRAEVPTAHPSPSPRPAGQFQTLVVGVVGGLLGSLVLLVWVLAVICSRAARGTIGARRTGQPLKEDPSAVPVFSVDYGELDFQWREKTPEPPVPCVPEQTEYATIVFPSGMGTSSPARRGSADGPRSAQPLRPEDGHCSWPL

Kd (CD96-His): 30.8 nM
FITC-IgG的表达率 (percent positive cells) [1]: 86.7%
FITC-IgG的表达 (percent positive cells) [2]: 96.1%
B1: CD96 ScFv-Fc (scFv)
chain: DVVMTQTPLTLSVTIGQPASISCKSSQSLLDSDGKTYLNWLLQRPGESPKLLIYLVSKLDSGVPDRFTGSGSGTDFTLKISRVEAEDLGVYYCLQATHFPWTFGGGTKLEIKGSTSGSGKPGSGEGSTKGQVTLKESGPGILQPSQTLSLTCSFSGFSLDTFGMGVGWIRQSSGKGLEWLAHIWWDDDKFYNPALKSRLTVSKDTSKNQVFLKIANVDTADTATYYCAHYYGSLSFDVWGTGTTVTVSS
notes: Monospecific scFv-Fc control ('单抗'); also called CD96单抗; CD96抗体; not shown: Fc of the monospecific ScFv-Fc

binding result [3]: binds
B2: CD96 ScFv-Holes-PD1 ScFv-Knobes (bispecific antibody, human IgG4 S228P)
chain 1: DVVMTQTPLTLSVTIGQPASISCKSSQSLLDSDGKTYLNWLLQRPGESPKLLIYLVSKLDSGVPDRFTGSGSGTDFTLKISRVEAEDLGVYYCLQATHFPWTFGGGTKLEIKGSTSGSGKPGSGEGSTKGQVTLKESGPGILQPSQTLSLTCSFSGFSLDTFGMGVGWIRQSSGKGLEWLAHIWWDDDKFYNPALKSRLTVSKDTSKNQVFLKIANVDTADTATYYCAHYYGSLSFDVWGTGTTVTVSSESKYGPPCPPCPAPEFLGGPSVFLFPPKPKDTLMISRTPEVTCVVVDVSQEDPEVQFNWYVDGVEVHNAKTKPREEQFNSTYRVVSVLTVLHQDWLNGKEYKCKVSNKGLPSSIEKTISKAKGQPREPQVCTLPPSQEEMTKNQVSLSCAVKGFYPSDIAVEWESNGQPENNYKTTPPVLDSDGSFFLVSKLTVDKSRWQEGNVFSCSVMHEALHNHYTQKSLSLSLGK
chain 2: EIVLTQSPATLSLSPGERATLSCRASQSVSSYLAWYQQKPGQAPRLLIYDASNRATGIPARFSGSGSGTDFTLTISSLEPEDFAVYYCQQSSNWPRTFGQGTKVEIKGSTSGSGKPGSGEGSTKGQVQLVESGGGVVQPGRSLRLDCKASGITFSNSGMHWVRQAPGKGLEWVAVIWYDGSKRYYADSVKGRFTISRDNSKNTLFLQMNSLRAEDTAVYYCATNDDYWGQGTLVTVSSESKYGPPCPPCPAPEFLGGPSVFLFPPKPKDTLMISRTPEVTCVVVDVSQEDPEVQFNWYVDGVEVHNAKTKPREEQFNSTYRVVSVLTVLHQDWLNGKEYKCKVSNKGLPSSIEKTISKAKGQPREPQVYTLPPCQEEMTKNQVSLWCLVKGFYPSDIAVEWESNGQPENNYKTTPPVLDSDGSFFLYSKLTVDKSRWQEGNVFSCSVMHEALHNHYTQKSLSLSLGK
notes: Knob-into-hole heterodimer of two scFv-Fc chains
